Measurements as given in patent publication US20250011471A1 (published 2025).

B1: FGFR1b (receptor)
chain: RPSPTLPEQAQPWGAPVEVESFLVHPGDLLQLRCRLRDDVQSINWLRDGVQLAESNRTRITGEEVEVQDSVPADSGLYACVTSSPSGSDTTYFSVNVSDALPSSEDDDDDDDSSSEEKETDNTKPNRMPVAPYWTSPEKMEKKLHAVPAAKTVKFKCPSSGTPNPTLRWLKNGKEFKPDHRIGGYKVRYATWSIIMDSVVPSDKGNYTCIVENEYGSINHTYQLDVVERSPHRPILQAGLPANKTVALGSNVEFMCKVYSDPQPHIQWLKHIEVNGSKIGPDNLPYVQILKTAGVNTTDKEMEVLHLRNVSFEDAGEYTCLAGNSIGLSHHSAWLTVLEALEERPAVMTSPLYLE
B2: FGFR1c (receptor)
chain: RPSPTLPEQAQPWGAPVEVESFLVHPGDLLQLRCRLRDDVQSINWLRDGVQLAESNRTRITGEEVEVQDSVPADSGLYACVTSSPSGSDTTYFSVNVSDALPSSEDDDDDDDSSSEEKETDNTKPNPVAPYWTSPEKMEKKLHAVPAAKTVKFKCPSSGTPNPTLRWLKNGKEFKPDHRIGGYKVRYATWSIIMDSVVPSDKGNYTCIVENEYGSINHTYQLDVVERSPHRPILQAGLPANKTVALGSNVEFMCKVYSDPQPHIQWLKHIEVNGSKIGPDNLPYVQILKTAGVNTTDKEMEVLHLRNVSFEDAGEYTCLAGNSIGLSHHSAWLTVLEALEERPAVMTSPLYLE

Target: KLB + bFKB1
Experiment: SPR; preformed bFKB1/KLB complex

Row | Binder | koff
1 | B1 | 0.0402 s⁻¹
2 | B2 | 0.00291 s⁻¹
